Data on one molecule can be found in patent US11732249 (WASHINGTON UNIVERSITY, dated 2023).

The target in this experiment is T1, soluble bovine cation-independent mannose 6-phosphate receptor (CI-MPR), covalently conjugated to Cyanogen … (bovine, UniProt P08169 45-2313, limits assumed, covalently conjugated to Cyanogen bromide-activated-Sepharose 4B).
T1 construct: also called immobilized CI-MPR
In words: CI-MPR-affinity bead pull-down from lysates of GNPTAB-/- HeLa cells transfected with empty vector, WT α/β precursor or DS1 mutant; western blot (FIG. 2C). On the technique in general: Immunoblotting shows a protein as a band on a membrane.

T1 sequence (P08169 45-2313 limits assumed): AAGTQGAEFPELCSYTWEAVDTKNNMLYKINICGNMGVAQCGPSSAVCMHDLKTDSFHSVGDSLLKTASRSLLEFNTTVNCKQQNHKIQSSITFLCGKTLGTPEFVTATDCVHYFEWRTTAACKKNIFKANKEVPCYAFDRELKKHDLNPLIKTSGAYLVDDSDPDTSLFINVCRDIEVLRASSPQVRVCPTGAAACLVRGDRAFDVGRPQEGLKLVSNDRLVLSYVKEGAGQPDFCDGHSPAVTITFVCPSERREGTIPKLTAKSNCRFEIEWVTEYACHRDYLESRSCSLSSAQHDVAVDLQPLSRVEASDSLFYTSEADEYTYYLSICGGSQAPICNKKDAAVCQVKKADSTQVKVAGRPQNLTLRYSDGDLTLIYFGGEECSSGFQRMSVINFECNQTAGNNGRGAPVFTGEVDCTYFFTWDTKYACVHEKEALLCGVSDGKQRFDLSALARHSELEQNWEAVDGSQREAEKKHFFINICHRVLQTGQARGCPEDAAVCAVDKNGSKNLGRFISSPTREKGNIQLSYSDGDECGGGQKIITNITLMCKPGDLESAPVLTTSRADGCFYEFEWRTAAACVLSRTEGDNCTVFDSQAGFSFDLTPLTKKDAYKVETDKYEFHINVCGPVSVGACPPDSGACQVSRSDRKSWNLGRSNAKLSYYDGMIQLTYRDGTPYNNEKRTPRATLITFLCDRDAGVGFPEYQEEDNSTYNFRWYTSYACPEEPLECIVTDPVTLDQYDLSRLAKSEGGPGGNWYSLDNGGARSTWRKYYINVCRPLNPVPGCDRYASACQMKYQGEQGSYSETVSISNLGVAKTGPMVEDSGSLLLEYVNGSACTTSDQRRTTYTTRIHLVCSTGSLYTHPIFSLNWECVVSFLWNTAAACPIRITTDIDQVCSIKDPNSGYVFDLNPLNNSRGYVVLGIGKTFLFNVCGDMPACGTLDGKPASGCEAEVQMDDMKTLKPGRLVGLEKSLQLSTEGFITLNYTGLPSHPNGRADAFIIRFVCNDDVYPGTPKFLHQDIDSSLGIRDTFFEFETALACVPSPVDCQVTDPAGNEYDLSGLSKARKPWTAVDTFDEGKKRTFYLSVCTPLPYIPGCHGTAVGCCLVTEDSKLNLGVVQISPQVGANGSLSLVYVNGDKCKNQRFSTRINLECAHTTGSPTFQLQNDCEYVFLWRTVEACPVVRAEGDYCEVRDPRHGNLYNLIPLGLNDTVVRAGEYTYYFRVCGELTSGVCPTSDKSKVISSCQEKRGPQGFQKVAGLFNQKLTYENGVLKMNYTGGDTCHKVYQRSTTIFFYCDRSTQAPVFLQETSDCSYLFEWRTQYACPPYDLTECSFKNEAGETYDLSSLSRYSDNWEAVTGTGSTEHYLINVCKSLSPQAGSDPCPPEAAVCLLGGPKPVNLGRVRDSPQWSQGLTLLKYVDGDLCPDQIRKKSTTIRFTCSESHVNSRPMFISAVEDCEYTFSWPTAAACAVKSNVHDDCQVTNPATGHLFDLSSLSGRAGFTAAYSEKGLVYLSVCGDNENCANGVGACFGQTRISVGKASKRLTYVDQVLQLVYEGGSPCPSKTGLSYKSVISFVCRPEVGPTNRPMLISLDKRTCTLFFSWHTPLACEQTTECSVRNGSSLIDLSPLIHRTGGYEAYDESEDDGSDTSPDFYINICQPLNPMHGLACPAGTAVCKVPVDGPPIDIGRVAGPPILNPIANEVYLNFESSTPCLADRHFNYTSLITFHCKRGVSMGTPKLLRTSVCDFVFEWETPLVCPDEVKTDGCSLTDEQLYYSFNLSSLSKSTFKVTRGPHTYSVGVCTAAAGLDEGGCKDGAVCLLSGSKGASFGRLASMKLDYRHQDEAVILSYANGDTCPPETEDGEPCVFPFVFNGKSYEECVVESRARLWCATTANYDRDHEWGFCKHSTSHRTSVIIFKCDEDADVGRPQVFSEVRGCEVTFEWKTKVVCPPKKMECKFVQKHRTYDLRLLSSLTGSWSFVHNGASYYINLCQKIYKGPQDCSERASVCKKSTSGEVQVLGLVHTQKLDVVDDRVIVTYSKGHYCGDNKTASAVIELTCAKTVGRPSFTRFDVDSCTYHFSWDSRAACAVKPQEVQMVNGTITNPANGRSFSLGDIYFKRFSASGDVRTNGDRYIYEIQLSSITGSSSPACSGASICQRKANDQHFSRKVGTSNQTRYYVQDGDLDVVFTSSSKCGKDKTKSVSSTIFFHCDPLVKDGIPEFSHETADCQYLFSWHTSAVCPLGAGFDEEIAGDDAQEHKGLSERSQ
Protocol: (FIG. 2C) Western blot of GNPTAB^{-/-} HeLa cells co-transfected with the expression plasmids for the indicated proteins along with empty vector, WT α/β precursor or the DS1 mutant cDNA. Cell lysates were incubated with CI-MPR-affinity beads and the binding of the various proteins was determined by probing the blot with the following antibodies: Renin—anti-HA; NPC2, GP, Lamp1 and Lamp2 with antibodies generated against the native protein.

B1: Lamp1 (other, UniProt P11279 29-417, looked up)
chain: AMFMVKNGNGTACIMANFSAAFSVNYDTKSGPKNMTFDLPSDATVVLNRSSCGKENTSDPSLVIAFGRGHTLTLNFTRNATRYSVQLMSFVYNLSDTHLFPNASSKEIKTVESITDIRADIDKKYRCVSGTQVHMNNVTVTLHDATIQAYLSNSSFSRGETRCEQDRPSPTTAPPAPPSPSPSPVPKSPSVDKYNVSGTNGTCLLASMGLQLNLTYERKDNTTVTRLLNINPNKTSASGSCGAHLVTLELHSEGTTVLLFQFGMNASSSRFFLQGIQLNTILPDARDPAFKAANGSLRALQATVGNSYKCNAEEHVRVTKAFSVNIFKVWVQAFKVEGGQFGSVEECLLDENSMLIPIAVGGALAGLVLIVLIAYLVGRKRSHAGYQTI
With B1, the binding result was “no binding”.
